This is an account of results in US20210171647A1 (WUXI BIOLOGICS SHANGHAI, published 2021).

By EC50 (read off the curve) is commonly meant the midpoint of the concentration-response curve. Low readings indicate a more potent agent, high ones a less potent agent. By Kd is commonly meant the constant that tells how readily two partners part at equilibrium. Read a high Kd as lower affinity. By koff is commonly meant the rate constant with which the complex falls apart. A lower koff goes with slow dissociation. As a reminder, the kon is a measure of how fast the partners come together. Read a high kon as fast association.

Assay [1] has as its target T1, human OX40, full-length, on cells (human, UniProt P43489 29-277).
T1 construct: whole, on cells; also called hPro1; cell surface human OX40
T1 sequence (looked up): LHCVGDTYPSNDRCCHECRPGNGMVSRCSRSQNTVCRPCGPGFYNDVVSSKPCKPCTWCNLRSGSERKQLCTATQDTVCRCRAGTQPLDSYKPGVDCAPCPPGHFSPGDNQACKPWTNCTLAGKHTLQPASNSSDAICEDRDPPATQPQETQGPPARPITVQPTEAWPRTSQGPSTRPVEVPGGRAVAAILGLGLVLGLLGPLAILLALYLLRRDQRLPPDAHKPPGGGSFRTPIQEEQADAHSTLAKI
Briefly: flow cytometry on human OX40 transfected CHO-K1 cells. For orientation: A flow cytometer gives signals particle by particle.
Procedure: (§1) CHO-K 1 cells expressing human OX40 were transferred in to 96-well U-bottom plates (Corning) at a density of 5×10⁴ cells/mL. Testing antibodies were 1:2 serially diluted in wash buffer (1×PBS/1% BSA) and incubated with cells at 4° C. for 1 h. The secondary antibody goat anti-human IgG Fc FITC (3.2 moles FITC per mole IgG, Jackson Immunoresearch Lab) was added and incubated with cells at 4° C. in the dark for half an hour. The cells were then washed once, resuspended in 1×PBS/1% BSA and analyzed by flow cytometry (BD). Fluorescence intensity was converted to bound molecules/cell based on the quantitative beads Quantum™ MESF Kits (Bangs Laboratories, Inc.). The KD value of each antibody was calculated using Graphpad Prism5.

The target in assay [2] is T1, human OX40, full-length, on cells. Nature of the assay: flow cytometry, CHO-K1 cells expressing human OX40, MESF beads.
Procedure: as §1
Another assay has as its target T2, human OX40-ECD.His F133A (human, UniProt P43489 29-214).
T2 construct: extracellular domain; not shown: C-terminal His-tag
T2 sequence (looked up): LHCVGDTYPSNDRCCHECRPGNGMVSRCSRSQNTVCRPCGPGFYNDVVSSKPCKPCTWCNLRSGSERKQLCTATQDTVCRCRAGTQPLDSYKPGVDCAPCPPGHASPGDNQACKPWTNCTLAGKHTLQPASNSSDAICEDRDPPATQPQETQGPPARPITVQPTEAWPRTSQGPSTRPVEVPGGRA
Nature of the assay: ELISA, antibody coated, OX40-ECD.His mutant supernatant; relative to silent alanine substitutions.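 Further: captured OX40 mutant protein detected with HRP-labelled anti-His antibody, absorbance read-out, scaled to the mean signal of control mutants.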 Background: ELISA stands for enzyme-linked immunosorbent assay.

The next assay concerns the target T3, human OX40-ECD.His P69A (human, UniProt P43489 29-214).
T3 construct: extracellular domain; not shown: C-terminal His-tag
T3 sequence (looked up): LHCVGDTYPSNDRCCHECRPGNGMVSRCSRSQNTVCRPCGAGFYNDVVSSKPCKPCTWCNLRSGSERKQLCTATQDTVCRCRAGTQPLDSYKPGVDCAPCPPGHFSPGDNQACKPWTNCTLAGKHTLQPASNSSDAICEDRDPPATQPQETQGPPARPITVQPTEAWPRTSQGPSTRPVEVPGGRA
The description is as above.

Another assay addresses T4, human OX40-ECD.His I165A (human, UniProt P43489 29-214).
T4 construct: extracellular domain; not shown: C-terminal His-tag
T4 sequence (looked up): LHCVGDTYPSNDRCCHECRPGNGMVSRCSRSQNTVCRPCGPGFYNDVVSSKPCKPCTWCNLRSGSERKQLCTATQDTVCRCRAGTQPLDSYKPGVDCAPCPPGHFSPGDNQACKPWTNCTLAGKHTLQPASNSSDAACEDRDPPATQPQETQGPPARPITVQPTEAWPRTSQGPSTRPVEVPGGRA
The assay is described as above.

A further assay concerns the target T5, human OX40-ECD.His G33A (human, UniProt P43489 29-214).
T5 construct: extracellular domain; not shown: C-terminal His-tag
T5 sequence (looked up): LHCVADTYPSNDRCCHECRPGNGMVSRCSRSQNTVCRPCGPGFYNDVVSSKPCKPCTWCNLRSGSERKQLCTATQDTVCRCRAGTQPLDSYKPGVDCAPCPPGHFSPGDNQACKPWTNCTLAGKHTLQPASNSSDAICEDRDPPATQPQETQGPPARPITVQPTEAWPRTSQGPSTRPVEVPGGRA
The assay is described as above.

The next assay has as its target T6, human OX40-ECD.His N160A (human, UniProt P43489 29-214).
T6 construct: extracellular domain; not shown: C-terminal His-tag
T6 sequence (looked up): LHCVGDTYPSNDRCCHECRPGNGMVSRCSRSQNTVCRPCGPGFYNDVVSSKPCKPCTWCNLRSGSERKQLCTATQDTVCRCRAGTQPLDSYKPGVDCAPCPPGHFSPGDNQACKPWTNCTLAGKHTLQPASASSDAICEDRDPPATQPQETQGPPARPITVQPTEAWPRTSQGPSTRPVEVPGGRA
Described as above.

Assay [3] concerns the target T7, human OX40 extracellular domain (ECD) protein (human, UniProt P43489 29-214).
T7 construct: extracellular domain; also called human OX40 ECD; human OX40 protein; not shown: human Fc or His tag
T7 sequence (looked up): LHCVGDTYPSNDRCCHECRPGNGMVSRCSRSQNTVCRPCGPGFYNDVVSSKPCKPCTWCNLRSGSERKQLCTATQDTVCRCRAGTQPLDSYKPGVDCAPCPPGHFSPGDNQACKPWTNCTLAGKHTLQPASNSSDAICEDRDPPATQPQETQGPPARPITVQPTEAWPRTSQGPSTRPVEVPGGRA
Nature of the assay: competition ELISA: human OX40 ECD coated, antibody titrated in a mix with a constant concentration of OX40L, bound OX40L detected at OD450.

In assay [4] the target is T8, mouse OX40 (mPro1) on transfected 293F cells (mouse, UniProt P47741 20-272).
T8 construct: whole, on cells
T8 sequence (looked up): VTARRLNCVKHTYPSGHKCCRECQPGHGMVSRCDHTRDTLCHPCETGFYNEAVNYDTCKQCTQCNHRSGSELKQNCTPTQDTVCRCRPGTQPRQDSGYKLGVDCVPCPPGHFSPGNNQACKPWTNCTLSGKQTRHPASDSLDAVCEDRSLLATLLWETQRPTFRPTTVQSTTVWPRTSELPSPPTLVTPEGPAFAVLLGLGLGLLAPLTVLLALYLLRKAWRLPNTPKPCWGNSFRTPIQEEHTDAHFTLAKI
Nature of the assay: FACS, transfected 293F cells, antibody 1 ug/mL.
Procedure: (§2) Binding of antibodies to chimeric OX40 variants was analyzed by flow cytometry. […] Cells were analyzed using flow cytometer.

For assay [5], the target named is T1, human OX40, full-length, on cells. Nature of the assay: FACS, transfected 293F cells, antibody 1 ug/mL.
Procedure: as §2
Assay [6] shares this target. Briefly: flow cytometry on activated human CD4+ T cells.
Procedure: Briefly, human OX40-expressing CHO-K1 cells or activated human CD4⁺ T cells were transferred into 96-well U-bottom plates (Corning) at a density of 1×10⁵ cells/well. Testing antibodies were serially diluted in wash buffer (1×PBS/1% BSA) and incubated with cells at 4° C. for 1 h. After washing with 1×PBS/1% BSA, the secondary antibody goat anti-human IgG Fc-PE (Jackson ImmunoResearch Lab) was applied and incubated with cells at 4° C. in the dark for 1 h. The cells were then washed and resuspended in 1×PBS/1% BSA or fixed with 4% paraformaldehyde, and then analyzed by flow cytometry (BD).
Assay [7] addresses T7, human OX40 extracellular domain (ECD) …. Nature of the assay: SPR, Biacore T200, antibody captured, OX40 as analyte. A general note: SPR reads the build-up and loss of mass on a sensor chip optically.
Procedure: Antibodies were characterized for affinity and binding kinetics to OX40 by SPR assay using Biacore T200 (GE). […] Then various concentrations of human or monkey OX40 and running buffer were flowed through the sensor chip at a flow rate of 30 μL/min for an association phase of 180 s, followed by dissociation. The association and dissociation curve was fit by 1:1 Langmuir binding model using the BIAevaluation T200 software.

Procedure for human OX40-ECD.His F133A: (§3) After interacting with the supernatant that contains quantified OX40 mutants or human OX40-ECD.His protein, HRP conjugated anti-His antibody (1:5000, GenScript-A00612, CHN) was added as detection antibody. Absorbance was normalized according to the average of control mutants.
Procedure for human OX40-ECD.His G33A: as §3
Procedure for human OX40-ECD.His I165A: as §3
Procedure for human OX40-ECD.His N160A: as §3
Procedure for human OX40-ECD.His P69A: as §3

B1: 1.134.9-u1-IgG1L (antibody, V domains shown)
VH: QVQLQESGPGLVKPSGTLSLTCAVSGGSISSYNWWSWVRQPPGKGLEWIGEIYHGGNTNYNPSLKSRVTMSVDNSKNQFSLKLSSVTAADTAVYYCARAPGDWGGSPYFDFWGQGTLVTVSS
VL: SSELTQDPAVSVALGQTVRITCQGDNLRTYYASWYQQKPGQAPILLIYGRNKRPSGIPDRFSGSSSGNTASLTITGAQAEDEAAYYCNSRDSSGNPVVFGGGTKLTVL
notes: fully human IgG1, lambda
Take B1: the results for the “EC50 (read off the curve)” value in [1] and in [6] were approximately 1 nM and 1 to 2 nM, respectively. Moreover, the figures for the Kd in [2] and in assay [7] were 0.53 nM and 0.179 nM, respectively. Moreover, the “Fold Change” value stood at 0.627 with human OX40-ECD.His F133A; 0.987 in the assay with human OX40-ECD.His P69A; 0.871 in the assay with human OX40-ECD.His I165A; 1 with human OX40-ECD.His G33A; 0.992 in the assay with human OX40-ECD.His N160A. In [3], the “IC50 (read off the curve)” value was approximately 1 nM. The MFI turned out to be 44.4 in [4] and 9160 in [5]. Also, the “PE + %” value is 0.937% in assay [4] and 85.2% in assay [5]. The molecule further returned an off-rate (koff) in assay [7] of 3.7e-05 s⁻¹. For the same molecule, the kon in assay [7] came to 207000 M⁻¹ s⁻¹.
